Results on 2 molecules are retold here after patent publication US20200407442A1 (WUXI BIOLOGICS IRELAND, published 2020).

In experiment [1] the target is T1, human LAG-3-ECD.D12.mFc mutant G37A (human, UniProt P18627 38-252).
T1 construct: Alanine scanning mutant; construct limits as for m26
T1 sequence: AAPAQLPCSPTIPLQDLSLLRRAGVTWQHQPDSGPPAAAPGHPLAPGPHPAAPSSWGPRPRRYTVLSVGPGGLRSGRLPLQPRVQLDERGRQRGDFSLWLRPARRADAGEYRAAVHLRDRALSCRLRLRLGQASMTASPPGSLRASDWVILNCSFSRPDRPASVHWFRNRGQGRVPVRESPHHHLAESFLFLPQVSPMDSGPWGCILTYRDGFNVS
Nature of the experiment: ELISA, antibody coated, LAG-3 D12.mFc mutant in supernatant, normalised to control mutants. As to the method: (§1) For ELISA binding assay, the antibody 1.53.3-uAb-IgG4k or 3.40.19-uAb-hIgG4L (2 μg/mL) was coated in plates. After interacting with the supernatant that contains quantified LAG-3 mutants or human LAG-3-ECD.D12.mFc protein, HRP conjugated anti-mFc antibody (1:5000; Bethyl, USA) was added as a detection antibody. Absorbance was normalized according to the average absorbance of control mutants. After setting an additional cutoff to the binding fold change (<0.75), the final determined epitope residues were identified.
Background: ELISA stands for enzyme-linked immunosorbent assay.

For experiment [2], the target named is T2, human LAG-3-ECD.D12.mFc mutant L42A (human, UniProt P18627 37-252).
T2 construct: Alanine scanning mutant; construct limits as for m26
T2 chain: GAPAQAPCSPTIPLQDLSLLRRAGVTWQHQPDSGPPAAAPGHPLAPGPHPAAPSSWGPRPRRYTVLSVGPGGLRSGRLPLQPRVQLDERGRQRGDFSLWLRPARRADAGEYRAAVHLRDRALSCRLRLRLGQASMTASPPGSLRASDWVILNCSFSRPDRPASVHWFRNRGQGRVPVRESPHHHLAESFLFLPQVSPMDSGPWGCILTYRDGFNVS
Described as above. As to the method:
as §1

Experiment [3] concerns the target T3, human LAG-3-ECD.D12.mFc mutant A59G (human, UniProt P18627 37-252).
T3 construct: construct limits as for m26
T3 chain: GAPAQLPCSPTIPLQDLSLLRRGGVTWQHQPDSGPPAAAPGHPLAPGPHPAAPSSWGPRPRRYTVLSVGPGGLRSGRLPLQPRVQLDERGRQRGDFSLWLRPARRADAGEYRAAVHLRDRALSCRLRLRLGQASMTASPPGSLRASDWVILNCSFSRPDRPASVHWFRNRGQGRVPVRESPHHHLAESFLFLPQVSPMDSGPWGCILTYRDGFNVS
The experiment is described as above. Here is the method:
as §1

In experiment [4] the target is T4, human LAG-3-ECD.D12.mFc mutant V101A (human, UniProt P18627 37-252).
T4 construct: Alanine scanning mutant; construct limits as for m26
T4 chain: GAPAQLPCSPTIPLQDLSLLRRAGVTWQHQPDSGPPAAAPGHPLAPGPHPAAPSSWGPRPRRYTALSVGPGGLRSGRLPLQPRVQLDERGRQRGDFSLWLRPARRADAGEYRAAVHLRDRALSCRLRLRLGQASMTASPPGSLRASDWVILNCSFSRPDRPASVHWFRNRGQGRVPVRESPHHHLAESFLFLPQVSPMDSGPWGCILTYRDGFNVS
Described as above. Here is the method:
as §1

Experiment [5] addresses T5, human LAG-3-ECD.D12.mFc mutant A139G (human, UniProt P18627 37-252).
T5 construct: construct limits as for m26
T5 chain: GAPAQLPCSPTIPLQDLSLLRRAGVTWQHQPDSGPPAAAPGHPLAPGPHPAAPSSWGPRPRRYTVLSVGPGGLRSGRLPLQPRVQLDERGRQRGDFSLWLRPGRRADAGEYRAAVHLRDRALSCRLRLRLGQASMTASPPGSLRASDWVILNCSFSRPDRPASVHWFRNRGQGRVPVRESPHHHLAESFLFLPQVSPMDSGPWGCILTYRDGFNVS
The description is as above. Here is the method: as §1

Experiment [6] addresses T6, human LAG-3-ECD.D12.mFc mutant D143A (human, UniProt P18627 37-252).
T6 construct: Alanine scanning mutant; construct limits as for m26
T6 chain: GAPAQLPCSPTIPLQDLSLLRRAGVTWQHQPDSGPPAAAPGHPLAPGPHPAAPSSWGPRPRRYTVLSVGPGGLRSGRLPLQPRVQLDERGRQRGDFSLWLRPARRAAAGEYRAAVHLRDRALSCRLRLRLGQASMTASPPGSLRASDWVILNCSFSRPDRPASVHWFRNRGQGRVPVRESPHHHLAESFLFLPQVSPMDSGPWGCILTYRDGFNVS
The description is as above. Here is the method:
as §1

For experiment [7], the target named is T7, full-length human LAG-3 on cells (human, UniProt P18627 23-525).
T7 construct: Expressed on Flp-In-293, CHO or 293F transfectants; also called hPro1.FL; cell surface human LAG-3
T7 sequence: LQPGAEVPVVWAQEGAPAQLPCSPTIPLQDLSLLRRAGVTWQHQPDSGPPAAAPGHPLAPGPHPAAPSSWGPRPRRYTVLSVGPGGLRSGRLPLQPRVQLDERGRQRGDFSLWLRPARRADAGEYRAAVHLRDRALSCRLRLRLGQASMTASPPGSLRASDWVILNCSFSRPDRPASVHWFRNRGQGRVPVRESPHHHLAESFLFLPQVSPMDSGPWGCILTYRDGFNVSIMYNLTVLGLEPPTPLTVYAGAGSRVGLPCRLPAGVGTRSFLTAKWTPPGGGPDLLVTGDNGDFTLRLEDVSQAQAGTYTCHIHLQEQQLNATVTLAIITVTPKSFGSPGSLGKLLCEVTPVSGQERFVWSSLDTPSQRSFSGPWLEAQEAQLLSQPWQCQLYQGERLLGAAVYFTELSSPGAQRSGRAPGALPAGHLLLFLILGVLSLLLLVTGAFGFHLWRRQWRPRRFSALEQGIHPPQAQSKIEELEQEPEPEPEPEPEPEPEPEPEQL
Nature of the experiment: FACS on human LAG-3 transfectant cells after incubation of the antibody in human serum at 37 C, PE-labeled goat anti-human IgG, MFI. Here is the method: The lead Abs were incubated in freshly isolated human serum (serum content>95%) at 37° C. On indicated time points, an aliquot of serum treated sample was removed from the incubator and snap frozen in liquid N₂, and then stored at −80° C. until ready for test. The samples were quickly thawed immediately prior to the stability test. Human LAG-3 transfectant cells were incubated with various concentrations of lead antibodies at 4° C. for 1 hour. PE-labeled goat anti-human IgG was used to detect the binding of lead antibodies onto the cells. MFI of the cells was measured by a flow cytometer (BD FACSCanto II) and analyzed by FlowJo.

B1: 1.53.3-uAb-IgG4k (antibody, V domains shown)
VH: QVQLQQWGAGLLKPSETLSLTCGVYGGSFSGYYWSWIRQPPGMGLEWIGEINHRGNTNYNPSLKSRVTISEDTSKNQFSLRLSSVTAADTAVYFCTRGEDYSDYDYYGDFWGQGTLVTVSS
VL: EIVLTQSPATLSLSQGERATLSCRASQSISSYLAWYQQKPGQAPRLLIYAASNRATGIPARFSGSGSGTDFTLTISSLEPEDFAIYYCQQRSNWPLTFGGGTKVEIK
notes: Fully human antibody from OMT rats; IgG4 kappa by its name
What is called EC50 (read off the curve) is the midpoint of the concentration-response curve. A high value points to weaker potency. As for B1, the “Fold Change” value in experiment [1] stood at 0.558; in experiment [2], 0.624; in experiment [3], 0.718; in experiment [4] it was 0.504; in experiment [5], 0.708; in experiment [6], 0.671. Moreover, the concentration giving a half-maximal response (EC50 (read off the curve)) in experiment [7] was roughly 3 nM.

B2: 3.40.19-uAb-IgG4L (antibody, V domains shown)
VH: QLQLQESGPGLVKPSETLSLTCTVSGDSISSTSYYWGWIRQPPGKGLEWIGSFYYSGSTYYNPSLKSRVTISVDTSKNQFSLKLNSVTAADTAVYYCARMQLWSYDVDVWGQGTTVTVSS
VL: QSALTQPASVSGSPGQSITISCTGTSSDVGGYDYVAWYQQHPGKVPKLMIYDVSERPSGVSNRFSGSKSGNTASLTISGLQAEDEADYYCSSYTSTTTLVVFGGGTKLSVL
notes: Fully human antibody from OMT rats; IgG4 lambda by its name; also called 3.40.19-uAb-hIgG4L
Consider B2, for which the “Fold Change” value in experiment [1] worked out at 0.284; in experiment [2], 0.306; in experiment [3], 0.542; in experiment [4], 0.275; in experiment [5], 0.368; in experiment [6] it was 0.529. The “EC50 (read off the curve)” value in experiment [7] was roughly 0.8 nM.
